Source: patent US20250282887A1 (Amgen, published 2025)
Residue numbers refer to the chain shown, from its start.

T1: Human MAGEB2 (Melanoma-associated antigen B2) (human, UniProt O15479 1-319)
T1 construct: Intracellular antigen detected by IHC in FFPE material: CHO cells transfected with human MAGEB2 (mCherry vector with Myc/DDK tags, or ORF without tags)
T1 sequence: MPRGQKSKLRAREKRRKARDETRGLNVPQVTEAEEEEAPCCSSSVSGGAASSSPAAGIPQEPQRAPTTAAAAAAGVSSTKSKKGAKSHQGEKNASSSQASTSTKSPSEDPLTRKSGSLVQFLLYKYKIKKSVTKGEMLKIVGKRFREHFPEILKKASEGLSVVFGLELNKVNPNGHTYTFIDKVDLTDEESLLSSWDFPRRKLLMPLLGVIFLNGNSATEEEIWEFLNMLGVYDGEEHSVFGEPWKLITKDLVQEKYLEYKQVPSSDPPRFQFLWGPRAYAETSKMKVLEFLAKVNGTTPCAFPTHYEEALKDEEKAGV

T2: huMAGEB2(1-319), biotinylated full length MAGEB2 protein (human, UniProt O15479 1-319, biotinylated with recombinant BirA (site not stated))
T2 construct: Expressed in E. coli from pET23; N-terminal 6xHis tag removed with caspase 3; also called Biotinylated MAGEB2 full length protein
T2 sequence: T1 sequence

B1: 7M5 (antibody, IgG1, V domains shown)
VH: QSLEESGGRLVTPGGSLTLTCTVSGIDLSSHAMIWVRQAPGEGLEWIGTIGSRDTIYYASWAKGRFTISKTSSTTMDLKMTSLTIEDTATYFCVRNALWGPGTLVTVSS
VL: DVVMTQTPASVSEPVGGTVTIKCQASQSIRNELFWWQQKPGQPPKLLIYAASKLASGVPSRFSGSGSGTEFTLTISDLECADAATYYCQCSYVSSSGTYGNVFGGGTEVVVK
notes: Rabbit monoclonal IgG1
B2: 1J16 (antibody, IgG1, V domains shown)
VH: QSLEESGGGLVQPEGSLTVTCTAFGVTLTNYYICWVRQAPGKGLEWIGCIDNINGRTYYASWAKGRFTISKTSSTTGTLQMTSLTAADTATYFCARSLATPLWGPGTLVTVSS
VL: DIVMTQTPASVEAAVGGTVTIKCQASQSISSYLAWYHQKPGQPPKLLIYAASTLASGVPSRFEGSGSGTQFTLTISDLECADAATYYCQSYDDSRSSSFFYAFGGGTEVVVK
notes: Rabbit monoclonal IgG1
B3: 4A15 (antibody, IgG1, V domains shown)
VH: B2 VH with V19L, F24S, I53V, T72A
VL: B2 VL with S28N, S30N, H37Q, A50R, E63K, Q70E, S97I
notes: Rabbit monoclonal IgG1
B4: 1H24 (antibody, IgG1, V domains shown)
VH: B2 VH with V19L, F24S, V26F, T29N, G48A, I53S, G77V, A99S
VL: B2 VL with A9F, A34S, H37R, A50R, E63K, R95S, S97N, S98N, A102G, K112R
notes: Rabbit monoclonal IgG1
B5: 1C18 (antibody, IgG1, V domains shown)
VH: B2 VH with V19L, F24S, V26F, G48A, I53A, S61T, G77V, T82P, A99S, P101N
VL: B2 VL with Y32W, A34S, H37Q, I48L, A50R, S52T, E63K, R95S, S98N, K112R
notes: Rabbit monoclonal IgG1
B6: 1D2 (antibody, IgG1, V domains shown)
VH: B2 VH with V19L, F24S, V26F, T29N, G48A, I53V, K71R, G77V, A99S
VL: DIVMTQTPFSVEAAVGGTVTIKCQASQSISSYLSWYQQKPGQPPKLLIYRASPLASGVPSRFKGSGSGTQFTLTISDLECADAATYYCQSYDDSSSNNFFYGFGGGTEVVVR
notes: Rabbit monoclonal IgG1
B7: 7F15 (antibody, IgG1, V domains shown)
VH: QEQLKESGGGLVAPGGTLTLTCAVSGFSLSSYNMGWVRQAPGEGLEYIGIIGASDSALYASWAKGRFTISKTSTTVDLKITSPTTEDTATYFCARGGLGLSTGFALWGPGTLVTVSS
VL: AAVLTQTPSPVSAAVGGTVSISCQSSQSVWHNDYLSWYQQKPGQPPKLLIYGASTLASGVPSRFKGSGSGTQFSLTISGVQCDDAATYYCAGGYGRSSENGFGGGTEVVVK
notes: Rabbit monoclonal IgG1
B8: 5I9 (antibody, IgG1, V domains shown)
VH: QSLEESGGRLVTPGGPLTLTCTVSGFSLSSYDMSWVRQAPGKGLEWIGYIATDGRPYYASWAKGRFTISKPSSTTVDLKITSPTTEDTATYFCVRGGYAGGLWGPGTLVTVSS
VL: AAVLTQTPSPVSAAVGGTVSISCQSSKSVYNNNWLAWYQQKPGQRPKLLIYDASTLDSGVSSRFKGSGSGTQFTLTISDVQCDDGATYYCVGGYSSRSDNGFGGGTEVVVK
notes: Rabbit monoclonal IgG1
B9: 7H4 (antibody, IgG1, V domains shown)
VH: QSLEESGGGLVKPGASLTLTCKASGSDFRSYYYICWVRQAPGKGLEWVACIGGGNTDATAYARWAKGRFTISKTSATTVALQMTSLTAADTATYFCVRGGPDNNVQFNLWGPGTLVTVSS
VL: QAVVTQTPSSVSAAVGGTVTISCQSSQSVYSNNLLSWYQQKPGQPPKLLIYKASTLASGVPSRLKGSGSGTQFTLTISEVQCDDAATYYCQGYYSGVIYMFGGGTEVVVK
notes: Rabbit monoclonal IgG1
B10: 1H17 (antibody, V domains shown)
VH: QEQLVESGGGLVKPGASLTLTCKASGFSFSSGQLMCWVRQAPGKGLEWIACIGSGSNAISTFYASWAQGRFTISKSSSTTVTLQLTSLTAADTATYFCARVGSDDYGDSDVFDPWGPGTLVTVSS
VL: AAVLTQTPSPVSAAVGGTVSASCQSSKSVYNKNWLSWFQQKPGQPPKLLIYGASTLASGVPSRFKGSGSGTQFTLTISDVQCDDAATYYCAGGYSSSSDTFAFGGGTEVVVKG
B11: 7B20 (antibody, IgG1, V domains shown)
VH: B9 VH with F28L, R29S, Y31A, V37I, G54V, T56R, D57V, R63T, A76S, A80T
VL: B9 VL with Q1A, A2Q, V4L, S9A, N32S, N33D, L64F, V80L, I98V, M100I
notes: Rabbit monoclonal IgG1
B12: 4G8 (antibody, IgG1, V domains shown)
VH: QEQLVESGGGLVQPEGSLTLTCAASGFSFSSSYFMCWVRQAPGKGLEWIACIAVGSSGSTYYASWAKGRFTISKTSSTTVTLQMTSLTAADTATYFCARVGYDDYGDSDAFDPWGPGTLVTVSS
VL: AAVLTQTPSPVSAAVGGTVTINCQSSKSVYNKNWLSWFQQKPGQPPKLLIYGASTLASGVPSRFKGSGSGTQFTLTISDVQCDDVATYYCAGGYSSSSDTFAFGGGTEVVVK
notes: Rabbit monoclonal IgG1
B13: 4A7 (antibody, IgG1, V domains shown)
VH: B12 VH with A53G, S56G, S64N, G101A, Y105D
VL: B12 VL with T20S, N22S, D79G, V85A
notes: Rabbit monoclonal IgG1
B14: 1I23 (antibody, IgG1, V domains shown)
VH: QEQLVESGGGLVQPKGSLTLTCAASGFSFSSSYFMCWVRQAPGKGLEWIACIGSGSSAISTFYASWAQGRFTISKTSSTTVTLQMTSLTAADTATYFCARVGYDDYGDSDAFDPWGPGTLVTVSS
VL: B12 VL with T20S, N22S, V85A
notes: Rabbit monoclonal IgG1
B15: 1G24 (antibody, IgG1, V domains shown)
VH: B2 VH with V19L, F24S, V26F, T29N, G48A, I53A, S61N, G77V
VL: DIVMTQTPASVEAAVGGTVTIKCQASESIGNALAWYQQKPGQPPSLLIYRASTLASGIPSRVKGSGSGTQFTLTISDLECADAATYYCQSYDDSSSSSFFYAFGGGTEVVVK
notes: Rabbit monoclonal IgG1

Molecular target: T1, Human MAGEB2 (Melanoma-associated …)
Experiment: IHC, antibody supernatant on FFPE CHO cells transfected with human MAGEB2
Text: Negative control cells included parental Chinese hamster ovary (CHO) cells, CHO cells stably transfected with mCherry Vector Control (minus Myc/DDK tags), CHO cells stably transfected with mCherry-human DCAF4L2 (plus Myc/DDK tags). The cross-reactivity control cells included CHO cells transfected with mCherry Vector Control (plus Myc/DDK tags) with one of the human MAGE-B or MAGE-A family members (MAGEA1, MAGEA2, MAGEA3, MAGEA4, MAGEA5, MAGEA6, MAGEA8, MAGEA9, MAGEA11, MAGEA12, MAGEB1, MAGEB3, MAGEB4, MAGEB5, MAGEB6, MAGEB10, MAGEB16, MAGEB17, MAGEB18). Positive control cell lines included CHO cells transfected with mCherry Vector (plus Myc/DDK tags) with human MAGE-B2 or CHO cells transfected with mCherry Vector (open reading frame (ORF); minus Myc/DDK tags) with human MAGEB2, and thirteen human cancer cell lines with known endogenous RNA expression level of MAGEB2 (U266B1, T98G, KMM-1, U20S, CFPAC-1, SCaBER, UACC-257, CFPAC-1, VMRC-LCD, NCI-H1703, UM-UC-3, NCI-H1395, NCIH82).
FFPE samples were sectioned at 4 μm and mounted on positive charged glass slides. After mounting, paraffin sections were air-dried at room temperature. FFPE TMA samples were received as freshly sectioned and mounted on glass slides. The fully automated IHC assay was performed on a Discovery Ultra Stainer (Ventana Medical Systems, Tucson, AZ) using Ventana Anti-Rabbit HQ (cat #760-4815), Ventana Anti-HQ HRP (cat #760-4820), and Ventana Antibody Diluent with Casein (cat #760-219) (Ventana Medical Systems, Tucson, AZ). The slides were baked on the Discovery Ultra Stainer at 60° C. for 8 minutes, de-paraffinized with Ventana Discovery wash (cat #950-510) for 3 cycles (8 minutes each) at 69° C., and underwent cell conditioning (target retrieval) at 95° C. for 16 minutes (for cell arrays) or 32 minutes (tissues or TMAs) in CC1 buffer (cat #950-500). Following this, slides were incubated with Background Sniper (cat #BS966M, Biocare Medical, Pacheco, CA) in a Ventana Option Prep kit (cat #771-751) for 28 minutes, incubated with CM inhibitor (a part of the Ventana DAB kit cat #760-159) for 12 minutes, and incubated for 1 h at RT with MAGE-B2 antibody diluted with Ventana diluent with Casein in a Ventana Prep kit (cat #770-001) (working concentration at 0.1 μg/ml for cell pellet, or 1-5 ug/ml for tissues) or with a matched concentration of isotype control Rabbit IgG1 antibody.

Binding result, binds:
B1
B2
B3
B4
B5
B6
B7
B8
B9
B10
B11
B12
B13
B14
B15

Molecular target: T2, huMAGEB2(1-319), biotinylated full …
Experiment: limited antigen FACS; biotinylated full length MAGEB2 on LumAvidin beads; B-cell supernatant
Procedure: Biotinylated MAGEB2 full length protein was titrated 1:2 across 6 different limited antigen concentrations and then coated onto six different LumAvidin beads in FACS buffer [1×PBS+2% fetal bovine serum (Hyclone Cat No. SH30396.03)] for 30 minutes at room temperature in the dark. The beads were then washed twice in FACS buffer by centrifugation for 2 min at 3500 RPM. The coated beads were resuspended and pooled together (6-plex) and added to the rabbit B-cell supernatants at a 1:2 final dilution onto Corning 3897 96 well V-bottom polystyrene plates and incubated overnight at room temperature in the dark. […] A final wash was done before plates were read on the iQue FACS machine with Intellicyte autosampler to obtain flow cytometry measurements according to the manufacturer's recommendations; data analysis was done on Intellicyt ForeCyt® Enterprise Client Edition 6.2 (R3).

Binding result, binds:
B1
B2
B3
B4
B5
B6
B7
B8
B9
B10
B11
B12
B13
B14
B15
